The target in the assay is T1, GPVI-Fc2 (GPVI dimer) (Homo sapiens, UniProt Q9HCN6).
T1 sequence (Q9HCN6 21-214 limits assumed): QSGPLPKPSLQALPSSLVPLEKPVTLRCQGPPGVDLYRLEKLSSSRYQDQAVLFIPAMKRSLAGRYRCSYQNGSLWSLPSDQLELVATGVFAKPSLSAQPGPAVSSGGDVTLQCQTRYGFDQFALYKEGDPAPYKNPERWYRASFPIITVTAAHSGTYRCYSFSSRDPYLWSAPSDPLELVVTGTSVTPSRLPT
Description: ELISA: GPVI dimer binding to immobilized collagenous substrates. (In general: An ELISA detects its analyte on a solid surface through an enzyme-linked reagent.)

One molecule from paper PMC3436176 (The Journal of Biological Chemistry, 2012) can be followed below.

B1: Collagen type III: Pepsin-treated bovine type III collagen from Koken (protein)
chain: EYEAYDVKSGVAGGGIAGYPGPAGPPGPPGPPGTSGHPGAPGAPGYQGPPGEPGQAGPAGPPGPPGAIGPSGKDGESGRPGRPGPRGFPGPPGMKGPAGMPGFPGMKGHRGFDGRNGEKGEPGAPGLKGENGVPGEDGAPGPMGPRGAPGERGRPGLPGAAGARGNDGARGSDGQPGPPGPPGTAGFPGSPGAKGEVGPAGSPGSSGAPGQRGEPGPQGHAGAPGPPGPPGSDGSPGGKGEMGPAGIPGAPGLIGARGPPGPPGTNGVPGQRGAAGEPGKNGAKGDPGPRGERGEAGSPGIAGPKGEDGKDGSPGEPGANGLPGAAGERGVPGFRGPAGANGLPGEKGPPGDRGGPGPAGPRGVAGEPGRNGLPGGPGLRGIPGSPGGPGSNGKPGPPGSQGETGRPGPPGSPGPRGQPGVMGFPGPKGNDGAPGKNGERGGPGGPGPQGPAGKNGETGPQGPPGPTGPSGDKGDTGPPGPQGLQGLPGTSGPPGENGKPGEPGPKGEAGAPGIPGGKGDSGAPGERGPPGAGGPPGPRGGAGPPGPEGGKGAAGPPGPPGSAGTPGLQGMPGERGGPGGPGPKGDKGEPGSSGVDGAPGKDGPRGPTGPIGPPGPAGQPGDKGESGAPGVPGIAGPRGGPGERGEQGPPGPAGFPGAPGQNGEPGAKGERGAPGEKGEGGPPGAAGPAGGSGPAGPPGPQGVKGERGSPGGPGAAGFPGGRGPPGPPGSNGNPGPPGSSGAPGKDGPPGPPGSNGAPGSPGISGPKGDSGPPGERGAPGPQGPPGAPGPLGIAGLTGARGLAGPPGMPGARGSPGPQGIKGENGKPGPSGQNGERGPPGPQGLPGLAGTAGEPGRDGNPGSDGLPGRDGAPGAKGDRGENGSPGAPGAPGHPGPPGPVGPAGKSGDRGETGPAGPSGAPGPAGSRGPPGPQGPRGDKGETGERGAMGIKGHRGFPGNPGAPGSPGPAGHQGAVGSPGPAGPRGPVGPSGPPGKDGASGHPGPIGPPGPRGNRGERGSEGSPGHPGQPGPPGPPGAPGPCCGAGGVAAI
For B1, under “binding to collagenous substrates”, the “Kd (monomer)/Kd (dimer)” value is recorded as 236.7. Where the note is “mean ± S.E., n = 4-12 as printed”, the “Hill coefficient for dimer binding” value is listed as 1.16 ± 0.11.
